Tests used:
[1] = target: the molecule itself; test: non-reducing SDS-PAGE with Coomassie staining + mass spectrometry of the bands
[2] = target: the molecule itself; test: non-reducing SDS-PAGE with immunoblot

B1: FLAG-His-tagged full-length CRT_(Del52), purified (natural protein, human)
chain: EPAVYFKEQFLDGDGWTSRWIESKHKSDFGKFVLSSGKFYGDEEKDKGLQTSQDARFYALSASFEPFSNKGQTLVVQFTVKHEQNIDCGGGYVKLFPNSLDQTDMHGDSEYNIMFGPDICGPGTKKVHVIFNYKGKNVLINKDIRCKDDEFTHLYTLIVRPDNTYEVKIDNSQVESGSLEDDWDFLPPKKIKDPDASKPEDWDERAKIDDPTDSKPEDWDKPEHIPDPDAKKPEDWDEEMDGEWEPPVIQNPEYKGEWKPRQIDNPDYKGTWIHPEIDNPEYSPDPSIYAYDNFGVLGLDLWQVKSGTIFDNFLITNDEAYAEEFGNETWGVTKAAEKQMKDKQDEEQRTRRMMRTKMRMRRMRRTRRKMRRKMSPARPRTSCREACLQGWTEA
For B1, the “stoichiometry N” value [1] was 2.

B2: his-GB1-tagged C-domain of CRT_(Del52) (domain or fragment, human)
chain: MKDKQDEEQRTRRMMRTKMRMRRMRRTRRKMRRKMSPARPRTSCREACLQGWTEA
B2 was tested, and the “stoichiometry N” value [2] was 2.
